Values quoted from earlier work in publication PMC10544997.

Target: FcγRIIa (Homo sapiens) (UniProt P12318)
Sequence (P12318 34-317): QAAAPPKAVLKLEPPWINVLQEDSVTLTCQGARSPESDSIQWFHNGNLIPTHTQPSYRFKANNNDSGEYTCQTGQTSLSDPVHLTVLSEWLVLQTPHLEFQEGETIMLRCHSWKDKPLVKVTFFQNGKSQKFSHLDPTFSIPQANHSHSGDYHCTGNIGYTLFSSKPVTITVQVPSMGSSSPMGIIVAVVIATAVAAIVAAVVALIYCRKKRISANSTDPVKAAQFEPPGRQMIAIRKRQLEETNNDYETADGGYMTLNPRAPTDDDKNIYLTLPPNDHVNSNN

Kd: 1000 nM
Substance: IgG1 Fc (from UniProt P01857)
